This note sets out measurements from patent US20210379110A1 (LENTIGEN TECHNOLOGY, published 2021).

In test [1] the target is T1, CD22-Fc peptide (R&D systems) (UniProt P20273 20-687).
T1 construct: Bought reagent (R&D systems); not shown: Fc part of the bought reagent
T1 sequence (looked up): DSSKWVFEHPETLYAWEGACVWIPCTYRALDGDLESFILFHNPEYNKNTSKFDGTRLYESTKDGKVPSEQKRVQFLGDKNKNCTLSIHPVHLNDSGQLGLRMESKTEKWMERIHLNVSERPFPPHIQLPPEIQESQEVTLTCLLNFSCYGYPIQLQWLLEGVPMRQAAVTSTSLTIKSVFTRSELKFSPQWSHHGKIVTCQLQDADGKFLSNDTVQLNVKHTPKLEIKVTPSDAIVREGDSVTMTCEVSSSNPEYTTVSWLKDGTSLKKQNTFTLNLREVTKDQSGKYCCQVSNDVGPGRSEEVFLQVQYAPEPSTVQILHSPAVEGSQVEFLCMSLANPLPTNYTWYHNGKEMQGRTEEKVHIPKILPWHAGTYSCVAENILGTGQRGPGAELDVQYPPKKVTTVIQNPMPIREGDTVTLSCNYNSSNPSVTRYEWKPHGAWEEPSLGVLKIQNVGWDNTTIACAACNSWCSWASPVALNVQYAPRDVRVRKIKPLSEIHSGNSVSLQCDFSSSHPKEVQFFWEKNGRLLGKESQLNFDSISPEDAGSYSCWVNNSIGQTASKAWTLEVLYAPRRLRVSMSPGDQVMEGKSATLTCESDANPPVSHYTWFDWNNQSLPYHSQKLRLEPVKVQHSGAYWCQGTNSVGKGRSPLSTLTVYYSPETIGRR
In words: flow cytometry, CAR T cells stained with CD22-Fc then anti-Fc AF647. On the procedure: (§1) For CAR surface expression, TSLPR Fc, CD19Fc and CD22Fc peptide (R&D systems, Minneapolis, Minn.) were used followed anti Fc-AF647 (Jackson ImmunoResearch, West Grove, Pa.). T cell subtypes was further identified with anti-CD4 antibody conjugated to VioBlue fluorophore (Miltenyi Biotec Bergisch Gladbach, Germany). Dead cells in all studies were excluded by 7AAD staining (BD Biosciences, San Jose, Calif.). Flow data were analyzed with MACSQuantify software.
To develop the tandem CD22 and TSLPR targeting CARs, CD22-directed scFv 16P17 was used in either membrane-proximal or membrane-distal orientation (construct D0103 and D0104, respectively). For TSLPR-targeting, scFv 3G11 was used. Surface expression of the tandem TSLPR×CD22 CAR incorporating the human ScFv 16P17 together with the TSLPR scFv 3G11, when the TSLPR scFv is positioned in the membrane-distal orientation (D0103), or in the membrane-proximal orientation (D0104) is shown in FIG. 5. Specific detection of each scFv domain within the CAR structure was facilitated by CAR T cell staining with TSLPR-Fc peptide, or CD22-Fc peptide, followed by a secondary staining with anti-Fc AF647-labeled reagent, and detected in the APC channel by flow cytometry. In CAR construct D0103, in which CD22 scFv was membrane-proximal and the TSLPR scFv was membrane-distal, the TSLPR scFv was detected at 26% of the transduced cells, and CD22 scFv was detected at 11%. In CAR construct D0104 with the opposite binder orientation (i.e. the CD22 scFv was membrane-distal, and the TSLPR scFv was membrane-proximal), the detection levels were 75% and 39% for scFv TSLPR and CD22, respectively (FIG. 5).
The surface expression of the tandem TSLPR×CD22 CAR incorporating the human ScFv m971 in membrane-proximal orientation (D0111), and in the membrane-distal orientation (D0112) is shown in FIG. 8. Specific detection of each scFv domain within the CAR structure was facilitated by CAR T cell staining with TSLPR-Fc peptide, or CD22-Fc peptide, followed by a secondary staining with anti-Fc AF647-labeled reagent and detection in the APC channel by flow cytometry. In CAR construct D0111, in which CD22 scFv was membrane-proximal and the TSLPR scFv was membrane-distal, the TSLPR scFv was detected at 34% of the transduced cells, and CD22 scFv was detected at 11%.

For test [2], the target named is T2, TSLPR-Fc peptide (R&D systems) (UniProt Q9HC73 25-231).
T2 construct: Bought reagent (R&D systems); also called TSLPR-Fc reagent; not shown: Fc part of the bought reagent
T2 sequence (looked up): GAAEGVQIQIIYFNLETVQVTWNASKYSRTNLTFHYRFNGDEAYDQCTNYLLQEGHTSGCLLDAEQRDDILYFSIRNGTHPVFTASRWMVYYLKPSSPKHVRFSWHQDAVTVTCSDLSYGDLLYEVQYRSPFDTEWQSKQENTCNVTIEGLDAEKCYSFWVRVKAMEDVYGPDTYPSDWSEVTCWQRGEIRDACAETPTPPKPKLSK
In words: flow cytometry, CAR T cells stained with TSLPR-Fc then anti-Fc AF647. The method, then:
as §1, with “Flow cytometric analysis was performed to detect the CAR molecule surface expression. Half million of harvested primary T cells were washed and stained with cold AutoMACS buffer supplemented with 0.5% bovine serum albumin (Miltenyi Biotec, Bergisch Gladbach, Germany), and resuspended in 200 ul Running Buffer before acquired by MACSQuant®10 Analyzer (Miltenyi Biotec Bergisch Gladbach, Germany). For” for “For”
Specific detection of each scFv domain within the CAR structure was facilitated by CAR T cell staining with TSLPR-Fc peptide, or CD19-Fc peptide, followed by a secondary staining with anti-Fc AF647-labeled reagent, and fluorescence was detected in the APC channel. In CAR construct D0101, in which CD19 scFv was membrane-proximal and the TSLPR scFv was membrane-distal, the TSLPR scFv was detected at 44% of the transduced cells, and CD19 scFv was detected at 31%. In CAR construct D0102 with the reverse binder orientation (i.e. the TSLPR scFv membrane-proximal, and CD19 scFv membrane-distal), the detection levels were 85% and 75% for scFv TSLPR and CD19, respectively (FIG. 2).

B1: D0111 (EF-1a-TSLPR-CD22 (m971) CD8 BBz) (other)
chain: QVTLKESGPGILKPSQTLSLTCSFSGFSLSTSGMGVGWIRQPSGKGLEWLAHIWWDDDKYYNPSLKSQLTISKDTSRNQVFLKITSVDTADTATYYCSRRPRGTMDAMDYWGQGTSVTVSSGGGGSGGGGSGGGGSDIVMTQAASSLSASLGDRVTISCRASQDISKYLNWYQQKPDGTVKLLIYYTSRLHSGVPSRFSGSGSGTDYSLTIRNLEQEDIATYFCQQVYTLPWTFGGGTKLEIKGGGGSGGGGSGGGGSGGGGSGGGGSQVQLQQSGPGLVKPSQTLSLTCAISGDSVSSNSAAWNWIRQSPSRGLEWLGRTYYRSKWYNDYAVSVKSRITINPDTSKNQFSLQLNSVTPEDTAVYYCAREVTGDLEDAFDIWGQGTMVTVSSGGGGSGGGGSGGGGSDIQMTQSPSSLSASVGDRVTITCRASQTIWSYLNWYQQRPGKAPNLLIYAASSLQSGVPSRFSGRGSGTDFTLTISSLQAEDFATYYCQQSYSIPQTFGQGTKLEIKAAATTTPAPRPPTPAPTIASQPLSLRPEACRPAAGGAVHTRGLDFACDIYIWAPLAGTCGVLLLSLVITLYCKRGRKKLLYIFKQPFMRPVQTTQEEDGCSCRFPEEEEGGCELRVKFSRSADAPAYQQGQNQLYNELNLGRREEYDVLDKRRGRDPEMGGKPRRKNPQEGLYNELQKDKMAEAYSEIGMKGERRRGKGHDGLYQGLSTATKDTYDALHMQALPPR
notes: Tandem chimeric antigen receptor on human primary T cells: leader, TSLPR scFv 3G11 (membrane-distal), (GGGGS)5, CD22 scFv m971, CD8 hinge/TM, 4-1BB, CD3 zeta; also called CAR TSLPR-22m971 BBz
As to B1, the “percent of transduced T cells stained by antigen-Fc” value (“percent” for short) in test [1] was 11%; in test [2], 34%.

B2: D0104 (EF-1a-CD22 (16P17)-TSLPR CD8 BBz) (other)
chain: QVQLQQSGPGLVKHSQTLSLTCAISGDSVSSNSAAWNWIRQSPSRGLEWLGRTYYRSKWYNDYAVSVKSRITINPDTSKNQFSLQLNSVTPEDTAVYYCAQEVEPHDAFDIWGQGTMVTVSSGGGGSGGGGSGGGGSDIQMTQSPSSVYASVGDKVTITCRASQDVSGWLAWYQQKPGLAPQLLISGASTLQGEVPSRFSGSGSGTDFTLTISSLQPEDFATYYCQQAKYFPYTFGQGTKLEIKGGGGSGGGGSGGGGSGGGGSGGGGSQVTLKESGPGILKPSQTLSLTCSFSGFSLSTSGMGVGWIRQPSGKGLEWLAHIWWDDDKYYNPSLKSQLTISKDTSRNQVFLKITSVDTADTATYYCSRRPRGTMDAMDYWGQGTSVTVSSGGGGSGGGGSGGGGSDIVMTQAASSLSASLGDRVTISCRASQDISKYLNWYQQKPDGTVKLLIYYTSRLHSGVPSRFSGSGSGTDYSLTIRNLEQEDIATYFCQQVYTLPWTFGGGTKLEIKAAATTTPAPRPPTPAPTIASQPLSLRPEACRPAAGGAVHTRGLDFACDIYIWAPLAGTCGVLLLSLVITLYCKRGRKKLLYIFKQPFMRPVQTTQEEDGCSCRFPEEEEGGCELRVKFSRSADAPAYQQGQNQLYNELNLGRREEYDVLDKRRGRDPEMGGKPRRKNPQEGLYNELQKDKMAEAYSEIGMKGERRRGKGHDGLYQGLSTATKDTYDALHMQALPPR
notes: Tandem chimeric antigen receptor on human primary T cells: leader, CD22 scFv 16P17 (membrane-distal), (GGGGS)5, TSLPR scFv 3G11, CD8 hinge/TM, 4-1BB, CD3 zeta; also called CAR 22-TSLPR BBz; tandem D0104 CD22×TSLPR CAR
As to B2, the “percent” value came to 39% in test [1] and 75% in test [2].

B3: D0103 (EF-1a-TSLPR-CD22 (16P17) CD8 BBz) (other)
chain: QVTLKESGPGILKPSQTLSLTCSFSGFSLSTSGMGVGWIRQPSGKGLEWLAHIWWDDDKYYNPSLKSQLTISKDTSRNQVFLKITSVDTADTATYYCSRRPRGTMDAMDYWGQGTSVTVSSGGGGSGGGGSGGGGSDIVMTQAASSLSASLGDRVTISCRASQDISKYLNWYQQKPDGTVKLLIYYTSRLHSGVPSRFSGSGSGTDYSLTIRNLEQEDIATYFCQQVYTLPWTFGGGTKLEIKGGGGSGGGGSGGGGSGGGGSGGGGSQVQLQQSGPGLVKHSQTLSLTCAISGDSVSSNSAAWNWIRQSPSRGLEWLGRTYYRSKWYNDYAVSVKSRITINPDTSKNQFSLQLNSVTPEDTAVYYCAQEVEPHDAFDIWGQGTMVTVSSGGGGSGGGGSGGGGSDIQMTQSPSSVYASVGDKVTITCRASQDVSGWLAWYQQKPGLAPQLLISGASTLQGEVPSRFSGSGSGTDFTLTISSLQPEDFATYYCQQAKYFPYTFGQGTKLEIKAAATTTPAPRPPTPAPTIASQPLSLRPEACRPAAGGAVHTRGLDFACDIYIWAPLAGTCGVLLLSLVITLYCKRGRKKLLYIFKQPFMRPVQTTQEEDGCSCRFPEEEEGGCELRVKFSRSADAPAYQQGQNQLYNELNLGRREEYDVLDKRRGRDPEMGGKPRRKNPQEGLYNELQKDKMAEAYSEIGMKGERRRGKGHDGLYQGLSTATKDTYDALHMQALPPR
notes: Tandem chimeric antigen receptor on human primary T cells: leader, TSLPR scFv 3G11 (membrane-distal), (GGGGS)5, CD22 scFv 16P17, CD8 hinge/TM, 4-1BB, CD3 zeta; also called CAR TSLPR-22 BBz; tandem D0103 TSLPR×CD22 CAR
With B3, the “percent” value came out at 11% in test [1] and 26% in test [2].

B4: D0112 (EF-1a-CD22 (m971)-TSLPR CD8 BBz) (other)
chain: QVQLQQSGPGLVKPSQTLSLTCAISGDSVSSNSAAWNWIRQSPSRGLEWLGRTYYRSKWYNDYAVSVKSRITINPDTSKNQFSLQLNSVTPEDTAVYYCAREVTGDLEDAFDIWGQGTMVTVSSGGGGSGGGGSGGGGSDIQMTQSPSSLSASVGDRVTITCRASQTIWSYLNWYQQRPGKAPNLLIYAASSLQSGVPSRFSGRGSGTDFTLTISSLQAEDFATYYCQQSYSIPQTFGQGTKLEIKGGGGSGGGGSGGGGSGGGGSGGGGSQVTLKESGPGILKPSQTLSLTCSFSGFSLSTSGMGVGWIRQPSGKGLEWLAHIWWDDDKYYNPSLKSQLTISKDTSRNQVFLKITSVDTADTATYYCSRRPRGTMDAMDYWGQGTSVTVSSGGGGSGGGGSGGGGSDIVMTQAASSLSASLGDRVTISCRASQDISKYLNWYQQKPDGTVKLLIYYTSRLHSGVPSRFSGSGSGTDYSLTIRNLEQEDIATYFCQQVYTLPWTFGGGTKLEIKAAATTTPAPRPPTPAPTIASQPLSLRPEACRPAAGGAVHTRGLDFACDIYIWAPLAGTCGVLLLSLVITLYCKRGRKKLLYIFKQPFMRPVQTTQEEDGCSCRFPEEEEGGCELRVKFSRSADAPAYQQGQNQLYNELNLGRREEYDVLDKRRGRDPEMGGKPRRKNPQEGLYNELQKDKMAEAYSEIGMKGERRRGKGHDGLYQGLSTATKDTYDALHMQALPPR
notes: Tandem chimeric antigen receptor on human primary T cells: leader, CD22 scFv m971 (membrane-distal), (GGGGS)5, TSLPR scFv 3G11, CD8 hinge/TM, 4-1BB, CD3 zeta; also called CAR 22m971-TSLPR BBz
B4: the “percent” value worked out at 39% in test [1] and 73% in test [2].
